The text below walks through data of article PMC12589613, “ATP-dependent one-dimensional movement maintains immune homeostasis by suppressing spontaneous MDA5 filament assembly” (Cell Research, 2025).

Details in all cases: both partners purified
Assay [1] has as its target T1, MDA5(M854K) (human, UniProt Q9BYX4 1-1025, M854K, Cy3 on a peptide (Cy3-CLPETGG) ligated by sortase; used unlabelled in some experiments).
T1 sequence (looked up): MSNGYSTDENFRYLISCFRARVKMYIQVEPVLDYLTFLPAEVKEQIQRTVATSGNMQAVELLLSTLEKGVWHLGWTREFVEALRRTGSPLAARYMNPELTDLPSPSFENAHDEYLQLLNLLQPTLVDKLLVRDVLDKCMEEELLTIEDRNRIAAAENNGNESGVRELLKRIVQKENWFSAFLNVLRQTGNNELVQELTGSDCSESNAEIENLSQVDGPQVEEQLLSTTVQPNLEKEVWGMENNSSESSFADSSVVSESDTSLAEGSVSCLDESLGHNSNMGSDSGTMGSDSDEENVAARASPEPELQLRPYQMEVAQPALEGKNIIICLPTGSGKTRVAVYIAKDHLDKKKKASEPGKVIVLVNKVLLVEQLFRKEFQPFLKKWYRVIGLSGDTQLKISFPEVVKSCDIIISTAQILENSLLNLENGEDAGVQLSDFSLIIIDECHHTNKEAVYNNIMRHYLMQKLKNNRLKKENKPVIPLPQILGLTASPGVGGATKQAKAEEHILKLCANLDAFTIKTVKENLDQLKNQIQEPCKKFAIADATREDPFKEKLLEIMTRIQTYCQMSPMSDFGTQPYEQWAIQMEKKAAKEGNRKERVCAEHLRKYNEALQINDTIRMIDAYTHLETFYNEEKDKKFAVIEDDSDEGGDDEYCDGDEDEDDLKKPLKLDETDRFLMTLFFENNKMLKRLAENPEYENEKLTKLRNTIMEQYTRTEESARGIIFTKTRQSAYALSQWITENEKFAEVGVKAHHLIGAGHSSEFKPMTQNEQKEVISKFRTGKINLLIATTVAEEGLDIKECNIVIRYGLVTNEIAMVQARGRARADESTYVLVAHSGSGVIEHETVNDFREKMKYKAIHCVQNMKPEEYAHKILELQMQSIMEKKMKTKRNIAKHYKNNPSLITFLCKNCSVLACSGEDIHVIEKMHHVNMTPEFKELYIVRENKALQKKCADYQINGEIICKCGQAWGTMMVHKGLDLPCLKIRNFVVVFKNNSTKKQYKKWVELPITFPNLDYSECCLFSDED
Briefly: single-molecule TIRF imaging (smTIRF) on dsRNA; 60 nM Cy3-LGP2 with or without 60 nM unlabelled MDA5, MDA5(R337G) or MDA5(M854K) on stretched, surface-anchored 11.6-kb dsRNA; Imaging Buffer (20 mM Tris-HCl pH 7.5, 100 mM NaCl, 1.5 mM MgCl2, 2 mM ATP unless stated otherwise), 23 °C.

In assay [2] the target is T2, MDA5(R337G) (human, UniProt Q9BYX4 1-1025, R337G, Cy3 on a peptide (Cy3-CLPETGG) ligated by sortase; used unlabelled in some experiments).
T2 sequence (looked up): T1 sequence (looked up) with R337G, K854M
The description is as above.

For assay [3], the target named is T1, MDA5(M854K). Description: single-molecule TIRF imaging (smTIRF) on dsRNA; MAVS-CARD recruitment without LGP2: Cy3-MDA5, Cy3-MDA5(R337G) or Cy3-MDA5(M854K) (100 nM) and AF647-MAVS-CARD (100 nM) on 11.6-kb dsRNA; Imaging Buffer with 2 mM ATP, 23 °C.
Assay [4] deals with T2, MDA5(R337G). Described as above.

Where a chain is given by its changes, count along the chain named. Numbers in names are those of the source.

B1: human LGP2 (natural protein, UniProt Q96C10 1-678, looked up)
chain: MELRSYQWEVIMPALEGKNIIIWLPTGAGKTRAAAYVAKRHLETVDGAKVVVLVNRVHLVTQHGEEFRRMLDGRWTVTTLSGDMGPRAGFGHLARCHDLLICTAELLQMALTSPEEEEHVELTVFSLIVVDECHHTHKDTVYNVIMSQYLELKLQRAQPLPQVLGLTASPGTGGASKLDGAINHVLQLCANLDTWCIMSPQNCCPQLQEHSQQPCKQYNLCHRRSQDPFGDLLKKLMDQIHDHLEMPELSRKFGTQMYEQQVVKLSEAAALAGLQEQRVYALHLRRYNDALLIHDTVRAVDALAALQDFYHREHVTKTQILCAERRLLALFDDRKNELAHLATHGPENPKLEMLEKILQRQFSSSNSPRGIIFTRTRQSAHSLLLWLQQQQGLQTVDIRAQLLIGAGNSSQSTHMTQRDQQEVIQKFQDGTLNLLVATSVAEEGLDIPHCNVVVRYGLLTNEISMVQARGRARADQSVYAFVATEGSRELKRELINEALETLMEQAVAAVQKMDQAEYQAKIRDLQQAALTKRAAQAAQRENQRQQFPVEHVQLLCINCMVAVGHGSDLRKVEGTHHVNVNPNFSNYYNVSRDPVVINKVFKDWKPGGVISCRNCGEVWGLQMIYKSVKLPVLKVRSMLLETPQGRIQAKKWSRVPFSVPDFDFLQHCAENLSDLSLD
modifications: Cy3 or Cy5 on a peptide (GGGC-Cy3/Cy5) ligated by sortase; used unlabelled in some experiments
On to B1, for which the binding result with MDA5(M854K) [1] and in the assay with MDA5(R337G) [2] was “binds” throughout.

B2: MAVS-CARD(D23K/E26K/E80K) (domain or fragment, UniProt Q7Z434 1-97, looked up)
chain: MPFAEDKTYKYICRNFSNFCNVKVVKILPYLPCLTARDQDRLRATCTLSGNRDTLWHLFNTLQRRPGWVEYFIAALRGCKLVDLADEVASVYQSYQP
modifications: Alexa Fluor 647 (SNAP-Surface Alexa Fluor 647 substrate) on the SNAP-tag
notes: pET47b plasmid from the Sun Hur lab; also called AF647-MAVS-CARD; not shown: SNAP-tag, C-terminal, kept
As to B2, the binding result with MDA5(M854K) [3] and in the assay with MDA5(R337G) [4] was “binds” throughout.
